Measured values: patent publication US12679888B2, “IL-18 binding protein (IL-18BP) and antibodies for treating inflammatory diseases” (AB2 BIO SA, priority 2015, dated 2026)

Assays:
IL-18 [1] = molecular target: T1, IL-18 (Homo sapiens, UniProt Q14116); assay: Titration of free IL-18 as a function of IL-18BP level (free IL-18 ELISA); type: binding; set-up: purchased; details: 400 pg/mL IL-18 in PBS, 5% BSA
T1 sequence (Q14116 37-193): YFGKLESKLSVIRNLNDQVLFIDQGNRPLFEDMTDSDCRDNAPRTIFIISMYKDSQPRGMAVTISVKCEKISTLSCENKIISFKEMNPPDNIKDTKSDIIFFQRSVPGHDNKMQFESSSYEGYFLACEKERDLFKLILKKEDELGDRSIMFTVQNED
Protocol: Microplate wells are coated with an appropriate volume phosphate buffer saline solution containing recombinant human IL-18BP (r-hIL-18BP) as shown in SEQ ID NO 7, and less than 30% of N-terminal and/or C-terminal deletion variants of IL-18BP. A description of the r-hIL-18BP is provided in section 6.6.1 below. A description of the purification protocol is provided in section 6.6.2. Plates are incubated for a period of time at 4° C. and then stabilized with a blocking buffer containing bovine serum albumin or other appropriate blocking agents. Once the reaction is finished, microplates are sealed and stored at 4° C. until used for detection of free IL-18. […]
As an example, for a final reaction volume of 100 μl, dispense first 80 μl of biotin/antibody conjugate. […] The resulting reactions are then monitored with a microplate reader at an appropriate nanometer wavelength for absorbance or fluorescence of the produced reagent.
A constant quantity of recombinant IL-18 was titrated as a function of different and well-defined quantities of IL-18BP in order to understand when free IL-18 is not any more detectable. A PBS solution of 400 pg/mL IL-18 supplemented by 5% BSA was spiked with defined quantities of IL-18BP ranging from 0 to 10′000 pg/mL. The molar ratios were calculated according to the respective molecular weight of IL-18 and IL-18BP. […]

IL-18 [2] = molecular target: T1, IL-18; assay: Dissociation constant (Kd) used for dose selection, human; type: binding
Protocol: (§1) No validated animal model has been described for this condition. In the collagen-induced arthritis murine model the active dose for r-hIL-18BP administered intraperitoneally (i.p.) was determined to be 1 mg/Kg body weight. […] Altogether the expected pharmacologically active dose for a “humanized mice” treated by s.c. route with r-hIL-18BP is round 4.85 mg/kg. […] Although the guidance was initially written for extrapolating animal doses to healthy volunteers, its principles can be applied also to patients. […] Those doses will be likely also ineffective in AoSD patients considering that blood levels of IL-18 in AoSD are higher than those reported in the two above mentioned conditions.

C57BL/6J mice = assay: Four-day exacerbation/tobacco smoke mouse model (COPD exacerbation); type: in vivo
Protocol: The aim of the study was to determine the effect of IL-18BP, administered at three dose levels, by the sub-cutaneous route, on Polyinosinic:polycytidylic acid-induced exacerbation of tobacco-smoke induced pulmonary inflammation, in C57BL/6J mice. High level of dexamethasone, dosed orally, was included in the study as a reference agent.
Mice received either vehicle (PBS) or IL-18BP. IL-18BP was given subcutaneously to 3 groups of animals respectively at 1, 3 or 10 mg/kg 2 h prior to the initial tobacco smoke exposure from Day 1 to Day 4. Mice received orally either vehicle or dexamethasone (10 mg/kg) 1 h prior to each twice daily exposure. Mice received by intranasal administration either the vehicle or Polyinosinic:polycytidylic acid (2 mg/kg) 2 h prior to the initial air or tobacco smoke exposure on Day 4 to induce lung inflammation exacerbation. Tobacco smoke exposure was performed during the morning and afternoon as follow: Day 1 for 15 min, Day 2 for 25 min, Day 3 for 30 min and Day 4 for 30 min.
Following the above treatments, animals were terminally anaesthetised on Day 5. After that, a blood sample was taken via the sub-clavian artery (plasma) and the animals were bronchoalveloar lavaged with 3×0.4 ml of PBS for further cellular and cytokine/mediator analysis. Bronchoalveolar lavage supernatants were stored at −80° C. for cytokine/mediator analysis. Cells recovered from the BALF were counted using the Sysmex cell counter.

IL-18 [3] = molecular target: T2, IL-18 (Mus musculus, UniProt P70380); assay: Dissociation constant (Kd) used for dose selection, mouse; type: binding
T2 sequence (P70380 36-192): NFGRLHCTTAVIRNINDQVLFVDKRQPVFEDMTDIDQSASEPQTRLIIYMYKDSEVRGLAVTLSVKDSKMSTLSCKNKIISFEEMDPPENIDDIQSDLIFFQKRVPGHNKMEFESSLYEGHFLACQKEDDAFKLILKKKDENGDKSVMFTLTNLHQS
Protocol: as §1

[4] = 3 and 10 mg/kg s.c., compared to positive control dexamethasone

B1: IL-18BP: soluble glycoprotein of 164 amino acids produced from a Chinese Hamster Ovary cell line; isoform a, SEQ ID NO 7 (protein, listed as Homo sapiens)
chain: TPVSQTTTAATASVRSTKDPCPSQPPVFPAAKQCPALEVTWPEVEVPLNGTLSLSCVACSRFPNFSILYWLGNGSFIEHLPGRLWEGSTSRERGSTGTQLCKALVLEQLTPALHSTNFSCVLVDPEQVVQRHVVLAQLWAGLRATLPPTQEALPSSHSSPQQQG
modifications: CHO glycosylation; MISC_FEATURE - Human interleukin-18 binding protein isoform a
IL-18BP concentration at which 400 pg/mL IL-18 detection is near background detection level (IL-18 [1]): ≥ 6000 pg/mL | Kd (IL-18 [2]): 0.16 nM | exacerbated inflammation inhibition (total cell infiltration) (C57BL/6J mice; 10 mg/kg s.c.): clear and statistically relevant efficacy | neutrophil infiltration in the lung airway space (C57BL/6J mice; 10 mg/kg s.c.): best statistical efficacy | neutrophil infiltration in the lung airway space (C57BL/6J mice; [4]): statistically valuable efficacy | total cell infiltration in the lung airway space (C57BL/6J mice; [4]): statistically valuable efficacy | weight loss (C57BL/6J mice; 3 and 10 mg/kg s.c., large majority of mice): 6-7% | tolerability (C57BL/6J mice; IL-18BP s.c.): well tolerated | weight loss mitigation (C57BL/6J mice; IL-18BP s.c., Students t-test and ANOVA): mitigated by IL-18BP even though both Students t-test and ANOVA statistical analyses were not significant | neutrophil infiltration in the lung airway space (C57BL/6J mice; IL-18BP s.c., day 5): inhibited | total cell infiltration in the lung airway space (C57BL/6J mice; IL-18BP s.c., day 5): significant mitigation of total cell infiltration | Kd (IL-18 [3]): 0.4 nM
